The record followed here is patent US20240197872A1.

The target in this experiment is CD20 on CD20-positive human lymphoma cell lines Raji and Daudi (human) (UniProt P11836). Description: cell-based or functional assay.
Chain of UniProt P11836 (P11836 whole entry): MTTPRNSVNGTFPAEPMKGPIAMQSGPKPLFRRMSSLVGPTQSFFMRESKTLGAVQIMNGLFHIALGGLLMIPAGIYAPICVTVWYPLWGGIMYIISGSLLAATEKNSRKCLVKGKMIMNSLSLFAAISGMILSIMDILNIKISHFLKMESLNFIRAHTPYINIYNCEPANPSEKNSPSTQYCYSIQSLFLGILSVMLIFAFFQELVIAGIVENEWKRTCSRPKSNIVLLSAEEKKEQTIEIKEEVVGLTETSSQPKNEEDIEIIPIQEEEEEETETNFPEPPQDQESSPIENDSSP

“rituximab (commercially available anti-CD20 antibody, Rituxan), conjugated to an ssDNA linker and hybridised to the surface of gdT cells (ACE-gdT-CD20 cells)” displayed a percentage of lysed target cells, Daudi, E:T 2:1 (Ctrl-gdT cells without rituximab: 19.68%) of 41.2%; a percentage of lysed target cells, Daudi, E:T 10:1 (Ctrl-gdT cells without rituximab: 43.66%) of 71.2%; a percentage of lysed target cells, Raji, E:T 10:1 (Ctrl-gdT cells without rituximab: 43.13%) of 69.4%.
